Assay results: patent US20050059089A1 (priority 2003, published 2005)
Values joined by “and” are separate entries in the source; they are usually repeats but may differ in a detail not shown here. Equal values may be shown once. No end group written: not given here.

T1: mouse GPCR142 (mouse, UniProt Q7TQP4 1-414)
T1 sequence: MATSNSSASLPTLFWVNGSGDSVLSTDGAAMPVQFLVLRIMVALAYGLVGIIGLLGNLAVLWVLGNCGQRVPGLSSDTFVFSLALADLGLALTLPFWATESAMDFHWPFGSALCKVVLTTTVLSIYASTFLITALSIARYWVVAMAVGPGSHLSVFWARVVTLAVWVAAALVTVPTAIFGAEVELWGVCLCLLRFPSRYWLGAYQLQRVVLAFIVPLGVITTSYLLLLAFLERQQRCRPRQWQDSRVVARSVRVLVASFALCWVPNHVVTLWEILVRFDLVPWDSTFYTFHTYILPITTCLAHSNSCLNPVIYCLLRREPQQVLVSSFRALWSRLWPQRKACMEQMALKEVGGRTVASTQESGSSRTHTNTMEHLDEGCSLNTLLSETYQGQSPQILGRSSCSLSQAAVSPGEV

T2: monkey GPCR142 (monkey (Macaca Nemestrina), UniProt Q8TDU9 1-374 (human entry))
T2 chain: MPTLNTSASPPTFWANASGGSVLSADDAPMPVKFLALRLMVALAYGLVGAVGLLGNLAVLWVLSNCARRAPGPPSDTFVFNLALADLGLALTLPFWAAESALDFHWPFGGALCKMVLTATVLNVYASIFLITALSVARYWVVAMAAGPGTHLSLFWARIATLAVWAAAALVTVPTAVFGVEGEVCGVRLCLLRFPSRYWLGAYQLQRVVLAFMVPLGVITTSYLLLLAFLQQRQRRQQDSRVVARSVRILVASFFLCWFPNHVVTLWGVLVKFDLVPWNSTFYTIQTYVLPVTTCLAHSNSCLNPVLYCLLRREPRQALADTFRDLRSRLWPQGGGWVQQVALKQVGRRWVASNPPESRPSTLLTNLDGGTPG

T3: bovine GPCR142 (bovine)
T3 chain: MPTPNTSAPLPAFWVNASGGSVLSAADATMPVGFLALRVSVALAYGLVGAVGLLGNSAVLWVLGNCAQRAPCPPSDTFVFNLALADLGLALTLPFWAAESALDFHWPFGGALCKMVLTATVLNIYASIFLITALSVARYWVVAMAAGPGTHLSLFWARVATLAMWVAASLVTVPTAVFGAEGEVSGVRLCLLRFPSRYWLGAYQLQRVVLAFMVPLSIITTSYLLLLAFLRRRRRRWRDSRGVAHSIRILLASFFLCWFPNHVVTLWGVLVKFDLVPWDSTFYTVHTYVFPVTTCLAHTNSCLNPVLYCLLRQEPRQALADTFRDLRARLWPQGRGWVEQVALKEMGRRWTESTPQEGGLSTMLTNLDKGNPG

T4: porcine GPCR142 (porcine)
T4 chain: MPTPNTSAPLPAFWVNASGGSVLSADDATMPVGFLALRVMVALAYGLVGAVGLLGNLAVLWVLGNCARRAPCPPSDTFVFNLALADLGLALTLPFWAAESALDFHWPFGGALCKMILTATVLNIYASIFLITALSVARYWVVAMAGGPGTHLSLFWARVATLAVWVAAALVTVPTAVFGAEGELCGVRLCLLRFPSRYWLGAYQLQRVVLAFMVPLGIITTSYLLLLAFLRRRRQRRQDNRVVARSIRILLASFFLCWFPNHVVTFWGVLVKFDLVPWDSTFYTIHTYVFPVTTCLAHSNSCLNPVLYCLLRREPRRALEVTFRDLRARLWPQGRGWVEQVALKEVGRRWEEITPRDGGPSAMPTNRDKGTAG

T5: human GPCR135 (human, UniProt Q9NSD7 1-469)
T5 construct: Expressed in COS-7, CHO, SK-N-MC or HEK293 cells
T5 sequence: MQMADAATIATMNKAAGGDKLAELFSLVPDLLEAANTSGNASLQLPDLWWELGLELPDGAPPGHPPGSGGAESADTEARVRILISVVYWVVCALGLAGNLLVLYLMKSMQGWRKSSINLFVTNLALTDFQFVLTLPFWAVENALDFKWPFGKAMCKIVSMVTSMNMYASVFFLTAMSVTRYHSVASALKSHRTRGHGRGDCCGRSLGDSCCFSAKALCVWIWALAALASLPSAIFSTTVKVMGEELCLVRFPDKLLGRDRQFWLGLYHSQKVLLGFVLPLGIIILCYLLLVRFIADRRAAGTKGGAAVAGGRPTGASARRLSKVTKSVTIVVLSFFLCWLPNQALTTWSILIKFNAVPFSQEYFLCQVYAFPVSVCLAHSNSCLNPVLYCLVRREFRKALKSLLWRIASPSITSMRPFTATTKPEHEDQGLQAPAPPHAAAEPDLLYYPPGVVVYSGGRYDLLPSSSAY

B1: human relaxin3 (ligand)
chain 1: RAAPYGVRLCGREFIRAVIFTCGGSRW
chain 2: DVLAGLSSSCCKWGCSKSEISSLC
modifications: disulfide (positions not given here); also: A- and B-chains linked by disulfide bridges, places not given here
notes: also called unlabeled relaxin3; human recombinant relaxin3
B2: human recombinant INSL5 (ligand)
chain 1: KESVRLCGLEYIRTVIYICASSRW
chain 2: QDLQTLCCTDGCSMTDLSALC
modifications: ends and bridges not checked; cysteine pairing not given here
notes: Recombinant peptide from COS-7 cells co-transfected with furin; also called unlabeled INSL5; human INSL5

Experiments:
[1] = biological target: Monkey, bovine, and porcine GPCR142; experiment: cell-based or functional assay
[2] = biological target: T6, human GPCR142 (human, UniProt Q8TDU9 1-374); experiment: cell-based or functional assay
T6 sequence (Q8TDU9 whole entry L329S): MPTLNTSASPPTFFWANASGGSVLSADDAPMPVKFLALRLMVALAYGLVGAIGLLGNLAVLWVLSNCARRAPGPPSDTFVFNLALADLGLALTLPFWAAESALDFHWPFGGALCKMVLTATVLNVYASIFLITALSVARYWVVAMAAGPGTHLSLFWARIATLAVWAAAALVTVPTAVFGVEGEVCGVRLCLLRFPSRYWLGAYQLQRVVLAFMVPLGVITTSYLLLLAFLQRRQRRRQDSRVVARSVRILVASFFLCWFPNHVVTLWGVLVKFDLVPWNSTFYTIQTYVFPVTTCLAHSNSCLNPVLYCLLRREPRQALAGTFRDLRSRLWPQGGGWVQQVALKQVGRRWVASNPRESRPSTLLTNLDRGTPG

[3] = biological target: T1, mouse GPCR142; experiment: cell-based or functional assay
[4] = biological target: T2, monkey GPCR142; experiment: cell-based or functional assay
[5] = biological target: T3, bovine GPCR142; experiment: cell-based or functional assay
[6] = biological target: T4, porcine GPCR142; experiment: cell-based or functional assay
[7] = biological target: T6, human GPCR142; experiment: radioligand binding assays
[8] = biological target: T6, human GPCR142; experiment: radioligand competition binding, recombinant receptor in transfected COS-7 cells
Experimental: (§1) Competition binding experiments were performed to compare the ligand binding properties for recombinant monkey, mouse, bovine, and porcine GPCR142 versus that of the human GPCR142. […] The GPCR142 receptors from different species were also compared in GTPγS binding and Ca²⁺ mobilization assays.
(§2) The binding mixtures were incubated at room temperature for 1 h and then were filtered through 96-well GFC plates (Packard) and washed with ice-cold washing buffer: 50 mM Tris-HCl, pH 7.4. Fifty microliters of Microscint-40 were added to each well and the plates were counted in a Topcounter NTX (Packard).

[9] = biological target: T1, mouse GPCR142; experiment: as above
Experimental: as §1, §2

[10] = biological target: T2, monkey GPCR142; experiment: as above
Experimental: as §1, §2

[11] = biological target: T3, bovine GPCR142; experiment: as above
Experimental: as §1, §2

[12] = biological target: T4, porcine GPCR142; experiment: as above
Experimental: as §1, §2

[13] = biological target: T6, human GPCR142; experiment: competition binding with ^125I-relaxin3, membranes of COS-7 cells transiently expressing GPCR142
Experimental: as §2

[14] = biological target: T5, human GPCR135; experiment: competition binding with 100 pM ^125I-relaxin3, membranes of COS-7 cells expressing human GPCR135
Experimental: The binding assays were performed at room temperature for an incubation time of one hour. The binding mixtures were then filtered through GFC filters pre-saturated with 0.3 polyethylenimine (Sigma) and washed with cold binding buffer. […] The results were analyzed by Prism 3.0 software.

Binder	EC50, Ca^2+ mobilization with Gα16 [1] [nM]	EC50, Ca^2+ mobilization with Gα16 [2] [nM]	EC50, GTPγS binding assay [2]	EC50, inhibition of forskolin-stimulated β-gal activity (cAMP reporter) [2] [nM]	EC50, GTPγS binding assay [3] [nM]	EC50, GTPγS binding assay [4] [nM]	EC50, GTPγS binding assay [5] [nM]	EC50, GTPγS binding assay [6] [nM]	Kd and Ki values [7] [nM]	IC50 [8] [nM]	IC50 [9] [nM]	IC50 [10] [nM]	IC50 [11] [nM]	IC50 [12] [nM]	Ki [13] [nM]	binding result [14]
B1	50 to 100	~50	0.93 nM and 0.98 nM	0.85	3.5	1.1	0.45	0.96	1 to 2	1.45	5.45	1.34	0.87	1.59	1.2	
B2																no binding
